{"source": "paper PMC9187738", "about": "“Live imaging-based assay for visualising species-specific interactions in gamete adhesion molecules” (Scientific Reports, 2022)", "binders": {"B1": {"name": "human IZUMO1 (natural protein, UniProt Q8IYV9 22-350, looked up)", "chain": "CVICDPSVVLALKSLEKDYLPGHLDAKHHKAMMERVENAVKDFQELSLNEDAYMGVVDEATLQKGSWSLLKDLKRITDSDVKGDLFVKELFWMLHLQKETFATYVARFQKEAYCPNKCGVMLQTLIWCKNCKKEVHACRKSYDCGERNVEVPQMEDMILDCELNWHQASEGLTDYSFYRVWGNNTETLVSKGKEATLTKPMVGPEDAGSYRCELGSVNSSPATIINFHVTVLPKMIKEEKPSPNIVTPGEATTESSISLQPLQPEKMLASRLLGLLICGSLALITGLTFAIFRRRKVIDFIKSSLFGLGSGAAEQTQVPKEKATDSRQQ", "notes": "IZUMO1, human; gene synthesised artificially (Integrated DNA technologies); also called IZUMO1 Human; source: BHK-21 cells, transfected, on cells; also HEK293T cells, transfected, on cells; not shown: Venus or mTurquoise2, C-terminal, kept"}, "B2": {"name": "mouse IZUMO1-Venus (natural protein, UniProt Q9D9J7 22-397, looked up)", "chain": "CIKCDQFVTDALKTFENTYLNDHLPHDIHKNVMRMVNHEVSSFGVVTSAEDSYLGAVDENTLEQATWSFLKDLKRITDSDLKGELFIKELLWMLRHQKDIFNNLARQFQKEVLCPNKCGVMSQTLIWCLKCEKQLHICRKSLDCGERHIEVHRSEDLVLDCLLSWHRASKGLTDYSFYRVWENSSETLIAKGKEPYLTKSMVGPEDAGNYRCVLDTINQGHATVIRYDVTVLPPKHSEENQPPNIITQEEHETPVHVTPQTPPGQEPESELYPELHPELYPELIPTVAQNPEKKMKTRLLILLTLGFVVLVASIIISVLHFRKVSAKLKNASDEVKPTASGSKSDQSLSQQMGLKKASQADFNSDYSGDKSEATEN", "notes": "IZUMO1, mouse; CDS amplified from mouse cDNA; The methods say Venus or mTurquoise2 for IZUMO1, SPACA6 and CD9; the parent of the W148A mutant is named IZUMO-Venus; also called IZUMO-Venus; source: BHK-21 cells, transfected, on cells (mifepristone-inducible or cytomegalovirus promoter); also HEK293T cells, transfected, on cells; not shown: Venus, C-terminal, kept"}}, "key": {"human JUNO": {"biological_target": "T1, human JUNO (human, UniProt A6ND01 20-228)", "T1 construct": "JUNO, human; gene synthesised artificially (Integrated DNA technologies); also called JUNO Human; source: BHK-21 cells, transfected, on cells; not shown: mCherry, internal (just after the signal peptide), kept", "T1 sequence (A6ND01 20-228)": "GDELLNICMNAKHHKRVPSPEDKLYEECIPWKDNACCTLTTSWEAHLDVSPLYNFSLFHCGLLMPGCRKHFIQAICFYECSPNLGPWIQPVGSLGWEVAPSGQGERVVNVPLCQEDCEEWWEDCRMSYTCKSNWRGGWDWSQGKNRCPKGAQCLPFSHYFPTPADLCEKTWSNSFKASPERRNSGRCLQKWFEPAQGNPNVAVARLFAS", "test": "live imaging-based adhesion molecule (LIAM) assay; BHK cells, non-inducible expression (cytomegalovirus promoter); separately transfected cells mixed in equal amounts 4 h after transfection, incubated 20 h, imaged every 6 min for 12 h at 40x, 37 °C, 5% CO2; read-outs: accumulation at the cell interface and translocation to the opposite cell, % of contacting cell pairs", "settings": "partners not purified"}, "mouse mCherry-JUNO": {"biological_target": "T2, mouse mCherry-JUNO (mouse, UniProt Q9EQF4 20-222)", "T2 construct": "JUNO, mouse; CDS amplified from mouse cDNA; also called mouse JUNO; source: BHK-21 cells, transfected, on cells (mifepristone-inducible or cytomegalovirus promoter); also HEK293T cells, transfected, on cells; not shown: mCherry, internal (just after the signal peptide), kept", "T2 sequence (looked up)": "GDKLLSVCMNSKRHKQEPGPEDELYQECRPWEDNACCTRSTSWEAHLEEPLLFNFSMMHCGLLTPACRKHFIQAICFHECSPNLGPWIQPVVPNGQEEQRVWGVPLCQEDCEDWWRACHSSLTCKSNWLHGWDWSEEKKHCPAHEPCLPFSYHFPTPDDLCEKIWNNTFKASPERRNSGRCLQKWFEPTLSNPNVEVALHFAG", "test": "live imaging-based adhesion molecule (LIAM) assay; BHK cells, non-inducible expression (cytomegalovirus promoter); separately transfected cells mixed in equal amounts 4 h after transfection, incubated 20 h, imaged every 6 min for 12 h at 40x, 37 °C, 5% CO2; read-outs: accumulation at the cell interface and translocation to the opposite cell, % of contacting cell pairs", "settings": "partners not purified"}}, "data": [{"binder": "B1", "values": [{"measurement": "IZUMO1 accumulation (% of contacting cell pairs)", "setting": "human JUNO", "value": 27, "unit": "%"}]}, {"binder": "B2", "values": [{"measurement": "IZUMO1 accumulation (% of contacting cell pairs)", "setting": "mouse mCherry-JUNO", "value": 72, "unit": "%"}, {"measurement": "IZUMO1 accumulation (% of contacting cell pairs)", "setting": "human JUNO", "value": 50, "unit": "%"}]}]}
